Data reported in patent US20210032299A1 (Eli Lilly, published 2021).
Starred links: 1 amine or outer side, 2 acyl side, 3 side chain; linkers in the order of their positions; H or OH if unused. Non-standard residues stand in square brackets, D forms with d. Groups on a side chain read outwards from the residue. No end group written: not given here. *: point of attachment. C20 diacid = O=C(O)CCCCCCCCCCCCCCCCCCC(=O)*; γGlu = O=C(O)[C@H](CCC(=O)[*:2])N[*:1]; 4Pal = N[C@@H](Cc1ccncc1)C(=O)O; αMeL = CC(C)C[C@](C)(N)C(=O)O; AEEA = NCCOCCOCC(=O)O; Aib = CC(C)(N)C(=O)O

T1: human glucose-dependent insulinotropic polypeptide (GIP) receptor (human, UniProt P48546 22-466)
T1 construct: whole, on cells; Assayed as crude membranes of stably transfected CHO cells; also called hGIPR; human GIP receptor
T1 sequence (looked up): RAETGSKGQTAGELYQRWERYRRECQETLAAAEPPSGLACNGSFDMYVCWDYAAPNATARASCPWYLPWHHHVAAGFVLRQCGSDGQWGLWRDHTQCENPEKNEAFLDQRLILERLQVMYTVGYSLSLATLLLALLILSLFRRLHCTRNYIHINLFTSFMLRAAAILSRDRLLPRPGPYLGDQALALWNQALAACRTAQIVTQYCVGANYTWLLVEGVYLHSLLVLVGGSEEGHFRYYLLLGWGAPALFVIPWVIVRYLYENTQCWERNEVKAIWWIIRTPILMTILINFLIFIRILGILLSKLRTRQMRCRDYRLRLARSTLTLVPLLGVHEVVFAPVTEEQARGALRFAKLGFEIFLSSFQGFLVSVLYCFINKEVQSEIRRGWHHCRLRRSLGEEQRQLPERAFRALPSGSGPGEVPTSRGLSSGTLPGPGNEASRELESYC

B1: Example 70 (peptide)
peptide: Y[Aib]EGTFISDYSI[αMeL]LDKK([AEEA-AEEA-γGlu-C20 diacid])HQ[Aib]DFVE[4Pal]LLATGPSSGAPPPS-NH2
modifications: N-terminus assumed
SMILES: CC[C@H](C)[C@H](NC(=O)[C@H](Cc1ccccc1)NC(=O)[C@@H](NC(=O)CNC(=O)[C@H](CCC(=O)O)NC(=O)C(C)(C)NC(=O)[C@@H](N)Cc1ccc(O)cc1)[C@@H](C)O)C(=O)N[C@@H](CO)C(=O)N[C@@H](CC(=O)O)C(=O)N[C@@H](Cc1ccc(O)cc1)C(=O)N[C@@H](CO)C(=O)N[C@H](C(=O)N[C@@](C)(CC(C)C)C(=O)N[C@@H](CC(C)C)C(=O)N[C@@H](CC(=O)O)C(=O)N[C@@H](CCCCN)C(=O)N[C@@H](CCCCNC(=O)COCCOCCNC(=O)COCCOCCNC(=O)CC[C@H](NC(=O)CCCCCCCCCCCCCCCCCCC(=O)O)C(=O)O)C(=O)N[C@@H](Cc1c[nH]cn1)C(=O)N[C@@H](CCC(N)=O)C(=O)NC(C)(C)C(=O)N[C@@H](CC(=O)O)C(=O)N[C@@H](Cc1ccccc1)C(=O)N[C@H](C(=O)N[C@@H](CCC(=O)O)C(=O)N[C@@H](Cc1ccncc1)C(=O)N[C@@H](CC(C)C)C(=O)N[C@@H](CC(C)C)C(=O)N[C@@H](C)C(=O)N[C@H](C(=O)NCC(=O)N1CCC[C@H]1C(=O)N[C@@H](CO)C(=O)N[C@@H](CO)C(=O)NCC(=O)N[C@@H](C)C(=O)N1CCC[C@H]1C(=O)N1CCC[C@H]1C(=O)N1CCC[C@H]1C(=O)N[C@@H](CO)C(N)=O)[C@@H](C)O)C(C)C)[C@@H](C)CC
B2: Example 86 (peptide)
peptide: Y[Aib]EGTFISDYSI[αMeL]LDEK([AEEA-AEEA-γGlu-C20 diacid])HQ[Aib]DFVE[4Pal]LLAGGPSSGAPPPS-NH2
modifications: N-terminus assumed
SMILES: CC[C@H](C)[C@H](NC(=O)[C@H](Cc1ccccc1)NC(=O)[C@@H](NC(=O)CNC(=O)[C@H](CCC(=O)O)NC(=O)C(C)(C)NC(=O)[C@@H](N)Cc1ccc(O)cc1)[C@@H](C)O)C(=O)N[C@@H](CO)C(=O)N[C@@H](CC(=O)O)C(=O)N[C@@H](Cc1ccc(O)cc1)C(=O)N[C@@H](CO)C(=O)N[C@H](C(=O)N[C@@](C)(CC(C)C)C(=O)N[C@@H](CC(C)C)C(=O)N[C@@H](CC(=O)O)C(=O)N[C@@H](CCC(=O)O)C(=O)N[C@@H](CCCCNC(=O)COCCOCCNC(=O)COCCOCCNC(=O)CC[C@H](NC(=O)CCCCCCCCCCCCCCCCCCC(=O)O)C(=O)O)C(=O)N[C@@H](Cc1c[nH]cn1)C(=O)N[C@@H](CCC(N)=O)C(=O)NC(C)(C)C(=O)N[C@@H](CC(=O)O)C(=O)N[C@@H](Cc1ccccc1)C(=O)N[C@H](C(=O)N[C@@H](CCC(=O)O)C(=O)N[C@@H](Cc1ccncc1)C(=O)N[C@@H](CC(C)C)C(=O)N[C@@H](CC(C)C)C(=O)N[C@@H](C)C(=O)NCC(=O)NCC(=O)N1CCC[C@H]1C(=O)N[C@@H](CO)C(=O)N[C@@H](CO)C(=O)NCC(=O)N[C@@H](C)C(=O)N1CCC[C@H]1C(=O)N1CCC[C@H]1C(=O)N1CCC[C@H]1C(=O)N[C@@H](CO)C(N)=O)C(C)C)[C@@H](C)CC
B3: Example 78 (peptide)
peptide: Y[Aib]EGTFISDYSI[αMeL]LDKK([AEEA-AEEA-γGlu-C20 diacid])HQ[Aib]DFVE[4Pal]LLAAGPSSGAPPPS-NH2
modifications: N-terminus assumed
SMILES: CC[C@H](C)[C@H](NC(=O)[C@H](Cc1ccccc1)NC(=O)[C@@H](NC(=O)CNC(=O)[C@H](CCC(=O)O)NC(=O)C(C)(C)NC(=O)[C@@H](N)Cc1ccc(O)cc1)[C@@H](C)O)C(=O)N[C@@H](CO)C(=O)N[C@@H](CC(=O)O)C(=O)N[C@@H](Cc1ccc(O)cc1)C(=O)N[C@@H](CO)C(=O)N[C@H](C(=O)N[C@@](C)(CC(C)C)C(=O)N[C@@H](CC(C)C)C(=O)N[C@@H](CC(=O)O)C(=O)N[C@@H](CCCCN)C(=O)N[C@@H](CCCCNC(=O)COCCOCCNC(=O)COCCOCCNC(=O)CC[C@H](NC(=O)CCCCCCCCCCCCCCCCCCC(=O)O)C(=O)O)C(=O)N[C@@H](Cc1c[nH]cn1)C(=O)N[C@@H](CCC(N)=O)C(=O)NC(C)(C)C(=O)N[C@@H](CC(=O)O)C(=O)N[C@@H](Cc1ccccc1)C(=O)N[C@H](C(=O)N[C@@H](CCC(=O)O)C(=O)N[C@@H](Cc1ccncc1)C(=O)N[C@@H](CC(C)C)C(=O)N[C@@H](CC(C)C)C(=O)N[C@@H](C)C(=O)N[C@@H](C)C(=O)NCC(=O)N1CCC[C@H]1C(=O)N[C@@H](CO)C(=O)N[C@@H](CO)C(=O)NCC(=O)N[C@@H](C)C(=O)N1CCC[C@H]1C(=O)N1CCC[C@H]1C(=O)N1CCC[C@H]1C(=O)N[C@@H](CO)C(N)=O)C(C)C)[C@@H](C)CC
B4: Example 85 (peptide)
peptide: Y[Aib]EGTFISDYSI[αMeL]LDEK([AEEA-AEEA-γGlu-C20 diacid])HQ[Aib]DFVE[4Pal]LLAAGPSSGAPPPS-NH2
modifications: N-terminus assumed
SMILES: CC[C@H](C)[C@H](NC(=O)[C@H](Cc1ccccc1)NC(=O)[C@@H](NC(=O)CNC(=O)[C@H](CCC(=O)O)NC(=O)C(C)(C)NC(=O)[C@@H](N)Cc1ccc(O)cc1)[C@@H](C)O)C(=O)N[C@@H](CO)C(=O)N[C@@H](CC(=O)O)C(=O)N[C@@H](Cc1ccc(O)cc1)C(=O)N[C@@H](CO)C(=O)N[C@H](C(=O)N[C@@](C)(CC(C)C)C(=O)N[C@@H](CC(C)C)C(=O)N[C@@H](CC(=O)O)C(=O)N[C@@H](CCC(=O)O)C(=O)N[C@@H](CCCCNC(=O)COCCOCCNC(=O)COCCOCCNC(=O)CC[C@H](NC(=O)CCCCCCCCCCCCCCCCCCC(=O)O)C(=O)O)C(=O)N[C@@H](Cc1c[nH]cn1)C(=O)N[C@@H](CCC(N)=O)C(=O)NC(C)(C)C(=O)N[C@@H](CC(=O)O)C(=O)N[C@@H](Cc1ccccc1)C(=O)N[C@H](C(=O)N[C@@H](CCC(=O)O)C(=O)N[C@@H](Cc1ccncc1)C(=O)N[C@@H](CC(C)C)C(=O)N[C@@H](CC(C)C)C(=O)N[C@@H](C)C(=O)N[C@@H](C)C(=O)NCC(=O)N1CCC[C@H]1C(=O)N[C@@H](CO)C(=O)N[C@@H](CO)C(=O)NCC(=O)N[C@@H](C)C(=O)N1CCC[C@H]1C(=O)N1CCC[C@H]1C(=O)N1CCC[C@H]1C(=O)N[C@@H](CO)C(N)=O)C(C)C)[C@@H](C)CC
B5: Example 79 (peptide)
peptide: Y[Aib]EGTFISDYSI[αMeL]LDKK([AEEA-AEEA-γGlu-C20 diacid])HQ[Aib]DFVE[4Pal]LLAQGPSSGAPPPS-NH2
modifications: N-terminus assumed
SMILES: CC[C@H](C)[C@H](NC(=O)[C@H](Cc1ccccc1)NC(=O)[C@@H](NC(=O)CNC(=O)[C@H](CCC(=O)O)NC(=O)C(C)(C)NC(=O)[C@@H](N)Cc1ccc(O)cc1)[C@@H](C)O)C(=O)N[C@@H](CO)C(=O)N[C@@H](CC(=O)O)C(=O)N[C@@H](Cc1ccc(O)cc1)C(=O)N[C@@H](CO)C(=O)N[C@H](C(=O)N[C@@](C)(CC(C)C)C(=O)N[C@@H](CC(C)C)C(=O)N[C@@H](CC(=O)O)C(=O)N[C@@H](CCCCN)C(=O)N[C@@H](CCCCNC(=O)COCCOCCNC(=O)COCCOCCNC(=O)CC[C@H](NC(=O)CCCCCCCCCCCCCCCCCCC(=O)O)C(=O)O)C(=O)N[C@@H](Cc1c[nH]cn1)C(=O)N[C@@H](CCC(N)=O)C(=O)NC(C)(C)C(=O)N[C@@H](CC(=O)O)C(=O)N[C@@H](Cc1ccccc1)C(=O)N[C@H](C(=O)N[C@@H](CCC(=O)O)C(=O)N[C@@H](Cc1ccncc1)C(=O)N[C@@H](CC(C)C)C(=O)N[C@@H](CC(C)C)C(=O)N[C@@H](C)C(=O)N[C@@H](CCC(N)=O)C(=O)NCC(=O)N1CCC[C@H]1C(=O)N[C@@H](CO)C(=O)N[C@@H](CO)C(=O)NCC(=O)N[C@@H](C)C(=O)N1CCC[C@H]1C(=O)N1CCC[C@H]1C(=O)N1CCC[C@H]1C(=O)N[C@@H](CO)C(N)=O)C(C)C)[C@@H](C)CC

biological target: T2, human GLP-1 receptor (human, UniProt P43220 24-463); assay: SPA, displacement of [125I]-GLP-1 from hGLP-1R membranes, 0.1% bacitracin
T2 construct: whole, on cells; Assayed as crude membranes of stably transfected HEK293 cells; also called hGLP1R; hGLP-1R
Method in brief: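 Binding buffer: 25 mM HEPES pH 7.4, 2.5 mM CaCl₂, 1 mM MgCl₂, 0.1% bacitracin, 0.003% Tween-20, protease inhibitors without EDTA. Four-parameter nonlinear regression; Kᵢ given as geometric mean ± SEM, n = independent replicates run on different days.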

| Binder | Ki [nM] |
| --- | --- |
| B1 | 570 |
| B2 | 108 |
| B3 | 394 |
| B4 | 220 |
| B5 | 486 |

biological target: T3, human glucagon receptor (human, UniProt P47871 26-477); assay: SPA, displacement of [125I]-Gcg from hGcgR membranes, 0.1% bacitracin
T3 construct: whole, on cells; Assayed as crude membranes of stably transfected HEK293 cells; also called hGcgR; GcgR
T3 sequence (P47871 26-477): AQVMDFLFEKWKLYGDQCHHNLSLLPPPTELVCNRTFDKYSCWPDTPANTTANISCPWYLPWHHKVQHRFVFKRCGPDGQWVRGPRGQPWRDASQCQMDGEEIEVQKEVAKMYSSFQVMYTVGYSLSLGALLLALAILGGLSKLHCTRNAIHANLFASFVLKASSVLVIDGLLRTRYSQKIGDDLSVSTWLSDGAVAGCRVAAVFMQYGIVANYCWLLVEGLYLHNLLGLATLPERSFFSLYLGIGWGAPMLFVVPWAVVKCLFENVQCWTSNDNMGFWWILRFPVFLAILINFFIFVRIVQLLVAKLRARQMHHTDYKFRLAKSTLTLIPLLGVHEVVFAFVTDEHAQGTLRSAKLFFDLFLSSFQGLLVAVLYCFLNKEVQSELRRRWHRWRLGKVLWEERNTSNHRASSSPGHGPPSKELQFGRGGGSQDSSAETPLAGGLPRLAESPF
Method in brief: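 Binding buffer: 25 mM HEPES pH 7.4, 2.5 mM CaCl₂, 1 mM MgCl₂, 0.003% Tween-20, protease inhibitors without EDTA. Counted by scintillation after 12 h incubation/settling at room temperature. Four-parameter nonlinear fit; Kᵢ given as geometric mean ± SEM of independent replicates run on different days.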

| Binder | Ki [nM] |
| --- | --- |
| B1 | 857 |
| B2 | 462 |
| B3 | 505 |
| B4 | 800 |
| B5 | 888 |

biological target: T1, human glucose-dependent insulinotropic …; assay: SPA, displacement of [125I]-GIP from hGIPR membranes, 0.1% bacitracin

| Binder | Ki [nM] |
| --- | --- |
| B1 | 0.0421 |
| B2 | 0.0533 |
| B3 | 0.0236 |
| B4 | 0.0529 |
| B5 | 0.0229 |
